Paper PMC6344521

T1: nucleoprotein (NP) of influenza A, prototype human isolate A/Wilson-Smith/1933 (influenza A virus (strain A/Wilson-Smith/1933)), P15682
T1 chain: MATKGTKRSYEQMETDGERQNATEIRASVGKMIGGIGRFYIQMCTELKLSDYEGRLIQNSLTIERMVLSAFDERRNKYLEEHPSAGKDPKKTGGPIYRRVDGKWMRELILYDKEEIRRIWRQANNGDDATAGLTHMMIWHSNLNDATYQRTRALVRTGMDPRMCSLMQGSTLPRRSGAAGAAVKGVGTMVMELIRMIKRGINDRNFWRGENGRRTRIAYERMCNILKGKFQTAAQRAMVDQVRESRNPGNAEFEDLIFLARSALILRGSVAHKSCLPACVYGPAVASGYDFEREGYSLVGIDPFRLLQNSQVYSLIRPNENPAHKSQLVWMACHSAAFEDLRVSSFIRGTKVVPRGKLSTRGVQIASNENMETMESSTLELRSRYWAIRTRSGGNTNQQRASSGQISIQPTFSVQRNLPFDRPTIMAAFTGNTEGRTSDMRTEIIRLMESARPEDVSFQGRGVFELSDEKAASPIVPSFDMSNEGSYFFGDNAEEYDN

B1: nucleoprotein (NP) of influenza A, prototype human isolate A/Wilson-Smith/1933, P15682 1-498 (natural protein)
chain: T1 chain

Key:
[1] = biological target: OVX836, NP of influenza A (A/Wilson-Smith/1933) fused through its C-terminus to the oligomerization domain OVX313 (influenza A virus (strain A/Wilson-Smith/1933)); experiment: reversed-phase chromatography (RP-UHPLC)
[2] = biological target: OVX836, NP of influenza A (A/Wilson-Smith/1933) fused through its C-terminus to the oligomerization domain OVX313 (influenza A virus (strain A/Wilson-Smith/1933)); experiment: SEC
[3] = biological target: T1, nucleoprotein (NP) of influenza A, …; experiment: SEC; settings: remark: other sources report otherwise

Molecule	stoichiometry N [1]	stoichiometry N [2]	stoichiometry N [3]
OVX836, NP of influenza A (A/Wilson-Smith/1933) fused through its C-terminus to the oligomerization domain OVX313	7	7	
B1			3
